According to PMC11102866:

Assays:
[1] = molecular target: nucleosome reconstituted with Alexa-Fluor-647-labeled H2A-K119C–H2B, H3.3–H4 and DNA carrying the Nr5a2 motif (mouse) (UniProt P10853); test: FRET or BRET; single-molecule FRET (TIRF): nucleosomes held on the surface by biotin-streptavidin, Cy3 on the 5' end of 601 DNA next to the motif at SHL +5.5, Alexa Fluor 647 on H2A-K119C; NR5A2 flowed in at 0.1 or 0.5 uM (quantified at 0.1 uM); 50 mM Tris pH 7.6, 120 mM NaCl, 1 mM MgCl2, 10 uM ZnCl2, 10% glycerol, 1 mM DTT, 100 ug/ml BSA; 22.5 C; low-FRET state taken as NR5A2 dwell time, single exponential fits, three replicates
[2] = molecular target: NR5A2 D159A D159A (Homo sapiens) (UniProt O00482); test: smFRET; settings: EMSA: 20 mM Tris-HCl pH 7.5, 120 mM NaCl, 1 mM MgCl2, 10 uM ZnCl2, 1 mM DTT, 100 ug/ml BSA, room temperature, 30 min, 50 nM DNA or nucleosome
[3] = molecular target: NR5A2 wild type (Homo sapiens) (UniProt O00482); test: smFRET; settings: EMSA: 20 mM Tris-HCl pH 7.5, 120 mM NaCl, 1 mM MgCl2, 10 uM ZnCl2, 1 mM DTT, 100 ug/ml BSA, room temperature, 30 min, 50 nM DNA or nucleosome

| Substance | average lifetime of the high-FRET (wrapped, unbound) state [1] [s] | duration of the low-FRET (unwrapped) state, taken as NR5A2 dwell time [1] [s] | binding signal [2] [s] | binding signal ([2]; mean lifetime of low-FRET (unwrapped) state, less stable than wild type) [s] | binding signal [3] [s] | binding signal ([3]; mean lifetime of low-FRET (unwrapped) state) [s] |
| --- | --- | --- | --- | --- | --- | --- |
| human NR5A2-D159A (from UniProt O00482 1-541) (natural protein) | 16.4 | 9.19 |  |  |  |  |
| 601 nucleosome SHL +5.5 for smFRET, with linker DNA |  |  | 16.4 | 9.19 | 20.3 | 16.4 |
| human NR5A2 (from UniProt O00482 1-541) (natural protein) | 20.3 | 16.4 |  |  |  |  |
